# From the nanobody polyreactivity screen of Harvey et al. (2022)
# Assay: yeast display, Sf9 membrane polyspecificity reagent, FACS + sequencing; frameworks hold sequencing errors
# Method in brief: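 Genes from sorted yeast were amplified by colony PCR, read by MiSeq 2 × 250 sequencing and filtered on CDR length. These cells carried a synthetic nanobody library in Saccharomyces cerevisiae BJ5465 and were sorted by FACS into low and high (top ~1%) gates on anti-HA and streptavidin fluorescence. Polyreactivity is labelled according to the gate of origin.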
row,Sequence,polyreactivity (PSR sort gate)
1,QVQLVESGGGLVQAGGSLRLSCAASGRTFVPYAMGWYRQAPGKERELVAAISYSGDSTYYADSVKGRFTISRDNAKNTVYLQMNSLKPEDTAVYYCAARGGNPFYYWGQGTQVTVSS,low polyreactivity
2,QVQLVESGGGLFKAGGSLRLSCAASGRIFEKYAMGWYRQAPGKERELVAAISYSGGSTYYADSVKGRFTISRDNAKNTVYFQMNCLKPEDTAVYYCARYSRTQAYDYWGQGTQVTVSS,high polyreactivity
3,QVQLVESGGGLVQAGGSLRLSCAASGSIFHPYTMGWYRQAPGKERELVAAISWSGGNTNYADSVKGRFTISRDNAKNTVYLQMNSLKPDDTAVYYCIKATNLSGGYDSWGLGTQVTVSS,low polyreactivity
4,QVQLVESGGGLVQAGGSLRLSCAASGSTFYLYDMGWYRQAPGKERELVATITSGTSTTYADSVKGRFTISRDNAKNTVYLQMISLKPEDTAVYYCNVYKPPTRGGVLEYGYWGQGTQVTVSS,low polyreactivity
5,QVQLVESGGGLVQAGGSLRLSCAASGFTFIRYAMGWDRQAPGKERELVAAISVSGGRTYYADSVKGRFTISRDNAKNTVYLQMNSLKPEDTAVYYCARRPSYYQGDYWGQGTQVTVSS,high polyreactivity
6,QVQLVESGGGLVQAGGSLRLSCDASGITIRLYGMGWYRQAPGTERELVATITRDGRTYYADSVKGRFTISRDNAKNTVYLQMNSLKPEDTGVYYCARPARYSYGDGYWGQGTEVTVSS,low polyreactivity
7,QGQLVESGRGLVQAGGSLSLSCAASGSTFFIYAMGWYRQAPGKERELVAAINRSGGRTYYADSVKGRFTISRYTAQNTVYLQMNSLKPEDTAVYYCAAYLGPYVRFYYWGQGTQGTVSS,high polyreactivity
8,QVQLVESGGGLVQAGGSLRLSCAASGRIFQAYAMGWYRQAPGKERELVASISYRGGITYYADSVKGRFTISRDNAKNTVYLQMNSLKPEDTAVYYCAAGRKGSMYYWGQGTQVTVSS,high polyreactivity
9,QVQLVESGGGLVQAGGILRLSCAASGFNFSSYAMAWYRQAPGKERELVAAISGSGGTTYYADSVKGRFTISRDNANNTVYVLMNSLKPEDTAVYYCATRRGLVITKYGYDYWGQGTQVTVSS,high polyreactivity
10,QVQLVESGGGLVQAGGSLRLSCAASGFIFNLYAMGWYRQAPGKERELVAAISSGGGTSYADSVKGRFTISRDNAKNTDYLQMNSLKPEDTAVYYCAKRSGTYPFNFRFDYWGQGTQVTVSS,high polyreactivity
11,QVKLVESGGGLVQAGGSLRLSCADSGSIFQRYAMGWYSQKPGKAREFVAAISGRGGSTYYADSVKGRFTISRDNAKNTVYLQMNSLKPEDTAVYYCAADSSRFYGRPRYYYWGQGTQVTVSS,high polyreactivity
12,QFQLVESGGGLVQAGGSLRLSCAASGSIFYRNAMGWYRQAPGKERELVAAISRRGGSTYYADSVKGRFTISRDNAKNTVYLQMNSLKPEDTAVYYCATDGSTSKLVTVAYDYWGQGTQVTVSS,high polyreactivity
13,QVQLVESGGGLVQAGGSLRLSCAASGRIFPYYAMGWSRQAPGKERELVAAITSGGTTYYADSVKGRFTISRDNAKNTVYLQMNSLKPEDTAVYYCEYDYWGQGTQVTVSS,low polyreactivity
14,QVQLVESGGGLVQAGGSLRLSCAASGSIFQRNAIGWSRQAPGKERELVAAITTTGGITHYADSVKGRFTISRDNAKNTVYLQMNSLKPEDTAVYYCAASNEVPWRFPDDYWGQGTQVTVSS,low polyreactivity
15,QVHLVESGGRLVQAGGSLRLSCAASGGTFYQYTMGWYRQAPGKERELVAAITRSGGSTRYADTVKGRFTISRDNAKNTVYLQMNSLKPEDTAVFYCAARSGYPSFEYWGPGTQVTVSS,high polyreactivity
16,QVQLVESGGGLVQAGGSLRLSCAASGSIFRFNAMGWYRQAPGKEREFVAAISSGGRTYYADSVKGRFTISRDNAKNTVYGQRNSLKPDDPAVYYCAALWHRRGSWFRQTGSGYDYWGQGTQVTVSS,high polyreactivity
17,QVQLVESGGGLVQAGGSLRLSCAASGSTFTWYGKGWYRQAPGKERELVAAISGSGGRTYYADSVKGRFTISRDNAKNTVYLQMNSLKPEDTAVYYCNADPANPFGTEFEYWGQGTQVTVSS,high polyreactivity
18,QVQLVESGGGLVQAGGSLRLSCAASGFIFFYAMGWYRQAPGKERELVASIDSGVSTDYADSVKGRFTISRDNAKNTVYLQMNSLTPEDTAVYYCAADPWSSLNYDYWGQGTQVTVSS,low polyreactivity
19,QVQLEESGGGLVQAGGSLRLSCAASGSIFYVNAMGWYRQAPGKERELVAAITSSGGSTYYADSVKGRFTISRDNAKNTVYLQMNSLIPEDTAVYYCAVDVYPGVFVEEGEYWGQGTQVTVSS,low polyreactivity
20,QVQLVESGGGLVQAGGSLRLSCAASGSTFLNYAMGWYRQAPGKERELVAAISGRGGRTYYADSVKGRFTISRDNAKNTVYLQMNSLKPEDTAVYYCARRVRFPGGTFYYWGQGTQVTVSS,high polyreactivity
21,QVQLVESGGGLVQAGGSLRLSCAASGYIFHLYGMGWYRQAPGKERELVARISYRGGSTYYADSVKGRFTISRDNAMKTVYLQRNSLKPEETAVYYCAAYRRQHIIYNYWGQGTQVSVSS,high polyreactivity
22,QVQLVESGGGLVQAGGSLRLSCAASGFIFRKYVMGWYRQAPGKERELVAAITRSGTSTYYADSVKGRFTISRDNAKNTVYLQMNSLKPEDNAVYYCNVGSDGWYYWGQGTQVTVSS,low polyreactivity

row,Sequence,polyreactivity (PSR sort gate)
1,QVQLVESGGGLVQAGGSLRLSCAASGIIFDSYALGWYRQAPGKERELVAAITSRGGRTYYAVSVKGRFTISRDNAKNTVYLQMNSLKPEDTAVYYCAARAKYDRRTDGTSGYDYWGQGTQVTVSS,low polyreactivity
2,QVQLVESGGGLVQAGGSLRLSCAASGSTFKFYTMGWYRQAPGKERELVATIDWSGGSTYYADSVKGRFTISRDNAKNTVYLQMNSLKPEDTAVYYCAAYSRSRNTRLGKYYYWGQGTQVTVSS,high polyreactivity
3,QVQLVESVGGLVQAGGSLRLSCAASGSTFKYNAMGWYRQAHGKERELVAAISRRGGSTYYADSVKGRFTISRDNAKNTVYLQMNSLKPDETAVYYCAADIIRPVTVDYWGQGTQVTVSS,high polyreactivity
4,QVQLVESGGGLVQAGGSLRLSCAASGSIFYYYSMGWYRQAPGKERELVATISSTTSTYADSVKGRFTISRDNAKNTVYLQMNSLKPEDTAVYYCSYDYWGQGTQVTVSS,low polyreactivity
5,QVQLVESGGGLVQAGGSLRLSCAASGSIFGTYAMGWYRPAPGNERELVAAITWRDDGNTYYADSVQGRFTISRDNAKNTVYLQMNSLQPEDTAVYYGAASRAYGKDAYRGYSYRYDYWGQGTQGTVSS,high polyreactivity
6,QVQLVESGGGLVQAGGSLRLSCAASGRNFKPNVMGWYRQAPGKERELVAAISWSGGASTYYADSVKGRFTISRDNAKNTVYLQMNSLKREDTAVYYCNAAKRNRYDYWGQGTQVTVSS,low polyreactivity
7,QVQLVESGGGLVQAGGSLRLSCAASGRIFRRYAMGWYRQAPGKERELVAAISVTGGRTYYADSVKGRFTISRDNAKNTVYLQMNSLKPEDTAVYYCNTLQYQERYAYDYWGQGTQVTVSS,high polyreactivity
8,QVQLVESGGGLVQAGGSLRLSCAASGSTLVDYAMGWYRQAPGKERELVAAISASGGTTYYADSVKGRFTISRDNAKNTVYLQMNSLKPEDTAVYYCAKYHYYYFPYDYWGQGTQVTVSS,low polyreactivity
9,QVQLVESGGGLVQAGGSLRLSCAASGIIFGTYAMGWYRQAPGKERELVASISSRGGSTYYADTVKGRFTISRDNAKNTVYLQMNSLKPEDTAVYYCAARNAYPGNSMDSWGLGTQVTVSS,high polyreactivity
10,QVQLVDSGGGLVQAGGSLGLSCAASGRSFTFNAMGWYRQAPGKERELVAAISSRGDGTYYADSVKGRFTISRDNAKNNVYLQMNSLKPEDTAVYYCARYPDDYYDWGYDYWGQGTQVTVSS,low polyreactivity
11,QVQLVESGGGLVQAGGILRLSCAASGRTVHNYVMAWYRQAPWNERELVAAITAGVGSTYYADSVKGRFTISRDNAKNTVYFQMNSLKPEDTAVYYCAARKVWGYTYGYPYYYWGQGTQETVSS,high polyreactivity
12,QVQLVESGGGLVQAGGSLRLSCAASGSTFSRYTMGWYRQAPGKERELVAAISKSGGSTYYADSVKGRFTISRDNAKNTVYLQMNSLKPEDTAVYYCAALVRAGTSLDYDYWGQGTQVTVSS,high polyreactivity
13,QVQLVESGVGLVQAGGSLRLSCAASGRNFAYYAMGWYRQAPGKERELVAAISSGGTTNYADSVKGRFTISRDNAKNTVYLQMNSLKPDDTAVYDCNADGWRRSRQYYYWGQGTQVTVSS,low polyreactivity
14,QVQLVESGGGLVQAGGSLRLSCAASGRNFNKNAMGWYRQAPGKERELVAAITDRGGSTNYADSVKGRFTISRDNAKNTVYLQMNSLKPEDTAVYYCNTGRKLVYRYPGYDYWGQGTQVTVSS,low polyreactivity
15,QVQLVESGGGLVQAGGSLRLSCAASGSIFYSYAMGWYRQAPGKERELVADITITGSTYYADSVKGRFTISRDNAKNTVYLQMNSLKPEDTAVYYCTAVLAPGGYDYWGQGTQVTVSS,low polyreactivity
16,QVHLVESGGCLVQARGSLRLSCAASGRTIQLYAMGWYRHPHGKVMELVAAITWSSGRTYYADSVKGRFTISRDNANNTVYLQMNRLKQEDTAVYYCNAPRGGRNTVYYWGQGTQVTVSS,high polyreactivity
17,QVQLVESGGGLVQAGGSLRLSCAASGSIFRNYAMGWYRQAPGKERELVARISYSGGRTHYADSVKGRFTISRDNAKNTVYFQMNSLNPEDTAVYYCAAPFHFTHFQGNYYWGQGTQVTVSS,low polyreactivity
18,QVQHVESGGGLVQAGGSLRLSCAASGFTYVVYDMGWYRPAPGKERELVAVITNSGGSTYYADSEKGRFTISRDNAKNTVYLQMNSLKPEDTAVYYCNTENFYGSDIFDSWGQGTQVTVSS,low polyreactivity
19,QVQLVESGGGLVQAGGSLRLSCAASGYTFLVYTKGWYRQAPGKERELVATISWSGTSTDYADSVKGRFTISRDNAKNTVYLQMNSLKPEDTAVYYCNAKYPRAYLYGYKLFDSWGQGTQVTVSS,high polyreactivity
20,QVQLVESGGGLVQAGGSLRLSCAASGRTFVYYAMGWYRQAPGKEREFVAAISRSGGRTSYADSVKGRFTISRDKAKNTVYLQMNSLKPEDTAVYYCAAKVRQWRQGSYSSQYDYWGQGTQVTVSS,high polyreactivity
21,KVQLVESGGGLVQAGGSLRLSCAASGSIFDYYAMGWYRQAPGKEREFVAAISISGGSTNYADSVKGRFTISRDNAKNTVYLQMNSLKPEDTAVYYCAATSRWSSYGFYVQYNYWGQGSQVTVSS,high polyreactivity
